According to the DeepSol protein solubility set:

Experiment: soluble on expression in E. coli; label from the status in PepcDB or PDB records

Soluble on expression in E. coli, not soluble:
MGSDKIHHHHHHVIRRKKEADMQLPDAWDWESGERTIMASTAPQEGHLWQEELQASPDGERFAAVTALDETTFSLRINDQTQEATYDKIWLPRFSPDGRLTALVQEDGEWTMLVEEEAWPGHYGYLWSTMFGPSGDIAAPAQQDGEYGMVLNGTPWETLYENANNYCISPAGGKTAAVVQTRSMGQADVATFQEGIYSVAVNGEAWPVNFVNCWTPVFSADGRRVAVQVRRNLHDYTIAVDGTPWTINYQCVWEPCFHPSSGGVAAPVRQNGMWGVALDGQMLWKARNAQCWNLRYSPDGSHLWAVVAPEYGMFTVSLDDTPWTFRAPVVTDMVLSPSGDRAAALASDNNTLWQVVVDGKPWRGTYDMAWQPVFSPDGTRVAARVERNGKYVVLLDGAPAAEAFDTAFDPVFSPDGRKLLLRGVRNGKAVRIVKQLQ
MGSDKIHHHHHHVKELHESSTIISFKEHTDVNADSILELSFLKLQTKDSCLVKNVGLIRELNNCLLILDSANSNLYVFNKSGAFVNQIGQKGSGPGEYILLSSFFVDNNKNYIAAIDIAQDKVLYYNATDFSFLYERRLPFSTSCCLQLEDGNLLWNSREYTDSKLSDFYFVVTDSLFDIIDYKMNKEFKSGYTTGPSQMIYKVGTNVFAYTPFDLTIYRVGTSEIVPAHSFSFEGTDIPSLDFLNKTSNQGNSNYLYDLIQSDYISYYCVEETERDLFVCYMKNKEKYIGLYDKNTDRTYNYPIKIFQDQLKVGELNYFSIGSVDDYHVAPLDVLSLKDMAGNGYVFDDKLSELLTISNEEDNSILLFVRIKK
MGSDKIHHHHHHVKQRVAVIGAGPGGLACAMLLAGRGIDVTVYEKQPIVGGRTSRVQVGDYQFDRGPTFLNMPHILENLFTSIDLDMKDYLDLKALDPMYTLYFNGGKDHFTMTTDRDRMKQTIEQHFPGNGEGYDRFMAEQALKLAKLMPILQTKHDKLTDYLSPRVITALPRLSLGRSLYDVLSDYFTSEELKYAFTFQAKYLGMSAWECPGGFSILSYMEHAYGVHHPIGGMNQIPEAMKRAVEELGGTVHLNTGISQLILDGTTATGVILESGEHVLYDDVVVGADFAHAMNHLVPEGVLKKWSRPKIDRKKFSCSTFMLYLGVNKSFDAPHHTIYFADDYEKNVREMTQTLELSDDFSFYVQNPSIIDSTLAPEGKSSLYVLVPVPNNYSELDWAIEGPKLRRRVLDALEHRSPYTGVEAAIEVEEMFTPDDWEAMGVHQGATFNLGHQLTQMMYFRPHNRFEELEHVYLVGGGTHPGSGLPTIFESARITADLLTSEVGVGK
MGSDKIHHHHHHVKRRLNPLEAYLVVMSNADRAGGLVLAATPKMKQEHHIKTGSRMYELPTWDKRIIIAPPRMKLYLKVNAMIQAIFRRYVPAEFIHVYSIDECFLDITGSHLLFGSTEEIVRKIQRDILEELRLYVTVGIGDNPLLAKLALDNVAKNRDDGIAEWRYEDVPETIWKIRHLDDVCGIGRRTAIRLQKMGIFNMYQLSQTPPQVLKNAMGVVGEQLYYHAHGIDYSLLNEKYVPVSKSYGKSQILEKDYHIPAEVEIVIREMVEEVAMRLRQNHVDTEVIHLSIGYSKYSIKKGFSHQAKIPSTSSSHALIPYFLQLFRRYDEREPVRSIAISCGKLTLKTGLQLNLFEDATRTLNHEQLEVTVDKIRTRYGFKSLMHASSLLNGATGLKRSEMVGGHKG
MGSDKIHHHHHHVLIGLSALSFSYRCGLIGRGTPRAVSHPLDIEGVMALASRAGLQSVEFPLSLLPDLSPGRLSALRERLTLCGLTPVADSDIVDVDTLRAHIPAAAMIGAHVLRVLISPVLEGYRRPFTTDWPAHLADVTDRLRAVIDLAAEHNIILAVENHQDATSADLAAICAAVDSPHIGVCFDAVNCLVVGETPYAALERLGPLIRNVHLADYETYPTTQGWRLVRCALGEGDLDIRRLFHLIEHYAPDVACQIELVSHSARHVRILDDDWWQGYPPCDVREVLPVLRLFAQTMRLRDDDWRTPWERGAGEEQISLYEDQQYATSIAYLRTIGILPRL
MGSDKIHHHHHHVLKELNQLMDHIERHLTEELSGMDIVRITGVSEYHFRRMFSYMSGMTLNEYIRNRRLSQANINLVNQHSVTEVAYEYGYQSIEGFSRAFREWSGFLPSEVIKNKIQKSFPRFTFYIDIKGGVSMEFKIERKSQFHVVGVSKRVPIQFEGVNHSIVELAQSITPQQRQEMQQLADLYPETVLNVSFDFDEGYLEEQGSLTHMIGFATSRQNPYGDLEQITIEDSLWAVFPNTGPFPQMLQETMAKTYAEWLPTSGYELVDLPSILFTNHEDDSLNVYSEVWVPVKEKTTS
